According to the MegaScale stability set (Tsuboyama et al. 2023):

B1: 5KPH (parent)
chain: EEKRQVKQVAKEKLLEQSPNSKVQVRRVQKQGNTIRVELELRTNGKKENYTVEVERQGNTWTVKRITRT

Variants of: B1
Assay: folding stability dG (cDNA display proteolysis); higher = more stable
Settings: PBS, room temperature

Folding stability dG [kcal/mol], by site and new letter:
I35: E 1.93; T 3.82; F 4.81; Q 2.79; S 3.37; P 0.813; L 3.71; N 2.81; K 1.48; G 2.57; V 3.81; D 1.2; M 4.13; R 2.6; H 4.15
E53: F 4.03; N 2.78; A 2.99; L 4.04; H 3.47; P -0.812; M 3.58; K 2.54; C 3.34; D 3.76; G 2.14; I 4.15
K46: S 3.73; L 3.79; G 3.49; Q 3.84; D 3.43; N 3.81; M 3.89; R 4.01; P 2.63; C 3.6; E 3.44; A 3.65; V 3.98; Y 3.93; H 3.9; I 4.03; W 3.7; T 3.85; F 3.81
N44: M 3.84; C 3.5; L 3.83; Q 3.67; I 3.46; V 3.47; Y 3.78; W 3.67; K 3.77; G 3.79; E 4.02; A 3.81; S 3.76; H 3.79; P 3.4; F 3.7; R 3.66; T 3.27; D 3.79
N49: Q 3.93; V 4.07; E 3.61; D 3.57; C 3.73; Y 4.3; H 4.04; K 4.23; S 3.86; G 3.81; P 2.7; F 4.14; A 3.73; R 4.09; L 4.4; I 4.22; T 4.14; M 4.18; W 4.2
V52: M 3.22; T 1.61; L 3.48; Y 1.78; A 3.31; W 1.58; G 0.851; C 2.92; I 3.65; F 2.52; Q -0.464; S 1.21
L39: T 2.59; C 3.88; M 3.66; W 2.03; R -0.147; Y 2.59; K -0.798; A 3.65; S 1.55; I 3.67; H 0.352; F 3.48; V 3.83; G 2.35; N -0.472
T51: N 3.09; Y 3.75; K 3; G 2.5; C 3.59; R 3.33; M 3.95; H 3.24; V 4.22; E 3.87; Q 3.56; S 3.75; D 3.01; A 3.6; L 3.99; W 3.98; I 4.13; F 3.66
V37: K 0.177; Y 2.32; I 3.5; R -0.176; N -0.204; L 3.33; M 2.89; W 1.87; T 1.28; S 0.645; F 2.39; Q -0.216; G 1.21; C 2.65; H -0.646; A 2.15
R36: M 4.23; E 3.54; D 2.45; Q 3.75; T 3.9; W 4.21; V 4.13; N 3.7; S 3.85; K 4.23; F 4.35; I 4.34; L 4.33; C 3.57; A 3.64; H 4.04; P 0.344; G 2.54; Y 4.54
E48: M 3.55; C 3.38; H 3.34; I 3.52; G 2.67; Q 3.7; V 3.63; T 3.65; P 1.23; R 3.35; F 3.57; Y 3.75; D 3.35; L 3.39; N 3.08; K 3.22; S 3.57; W 3.87; A 3.58
L41: C 3.37; G 2.38; H 2.19; V 4.07; P 0.528; M 3.89; Y 2.35; I 3.59; K 2.73; N 1.7; S 3.24; Q 2.91; W 2.39; F 2.69; T 3.36; D 2.04; E 1.66; R 2.65; A 3.63
E38: Y 4.76; N 3.51; Q 3.76; S 3.89; H 4.14; K 3.7; C 3.66; W 4.29; V 3.85; M 4.43; T 3.99; G 3.2; F 4.66; I 4.1; D 3.91; R 3.69; L 4.18; A 3.62; P 1.08
G45: E 3.49; D 3.57; R 3.42; F 3.97; V 2.85; W 3.66; L 3.42; C 3.29; H 3.44; Q 3.5; I 2.91; M 3.52; Y 3.55; P 1.96; T 3.49; A 3.5; S 3.75; K 3.4; N 3.55
R42: A 3.59; D 4.2; Q 3.81; N 4.19; F 4.66; E 4.12; W 4.57; M 3.85; H 3.91; C 3.54; T 4.4; K 3.57; P 1.28; G 3.04; S 3.91; Y 4.45; L 4.08; I 4.28; V 4.14
K47: F 3.86; G 3.03; Y 3.8; H 3.94; C 3.64; Q 3.64; W 3.75; A 3.71; D 2.91; L 4.04; R 4.02; T 4.05; V 4.06; E 3.13; S 3.92; N 3.59; M 3.77; I 4.14; P 3.31
T43: I 3.72; N 3.87; H 3.98; G 3.6; C 3.24; S 3.85; W 3.7; V 3.65; A 3.72; R 3.47; D 3.65; Q 3.91; M 3.68; F 3.87; P 2.17; K 3.69; L 3.94; E 3.78; Y 3.88
Y50: P -0.674; V 3.56; M 2.58; W 4.12; L 2.84; K 1.24; Q 1.33; I 3.17; C 2.79; A 2.98; F 3.74; S 1.25; N 0.663; E -0.081; G 0.705; R 1.2; H 2.1; T 1.47
E40: D 3.04; G 2.84; F 3.81; A 3.52; I 4.1; H 3.59; R 3.46; L 3.96; N 3.12; K 3.32; V 4.23; M 3.87; C 3.51; Q 3.91; W 3.95; S 3.73; P 0.357; Y 3.89; T 4.12
